Test results as given in paper PMC9204741 (2022).

T1: His6-SmiA (B. subtilis)
T1 chain: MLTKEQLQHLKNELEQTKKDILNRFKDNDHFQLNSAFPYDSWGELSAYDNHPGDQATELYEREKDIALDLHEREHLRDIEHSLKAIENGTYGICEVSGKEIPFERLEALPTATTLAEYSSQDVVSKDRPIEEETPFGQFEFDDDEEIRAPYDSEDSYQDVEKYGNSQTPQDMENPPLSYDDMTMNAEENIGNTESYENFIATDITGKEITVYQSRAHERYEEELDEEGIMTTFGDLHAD

B1: GST-SwrA^Δ101–117 (domain or fragment)
chain: MKRASIVREKKYYELVEQLKDRTQDVTFSATKALSLLMLFSRYLVNYTNVESVNDINEECAKHYFNYLMKNHKRLGINLTDIKRSMHLISGLLDVDVNHY
B2: GST-SwrA (natural protein)
chain: MKRASIVREKKYYELVEQLKDRTQDVTFSATKALSLLMLFSRYLVNYTNVESVNDINEECAKHYFNYLMKNHKRLGINLTDIKRSMHLISGLLDVDVNHYLKDFSLSNVTLWMTQER

Columns and labels:
[1] = biological target: LonA-His6 (B. subtilis) (UniProt P37945)
[2] = biological target: T1, His6-SmiA; experiment: BLI
[3] = biological target: T1, His6-SmiA; experiment: BLI; His6-SmiA (300 nM) loaded on anti-penta-His (HIS1K) biosensors; GST-SwrA variants 50-400 nM as analyte; 1x PBS, 1x kinetics buffer, 2% dialyzed fetal bovine serum, 0.5 mM TCEP; 1:1 binding model; Octet RED96

LonA-His6 (B. subtilis), sequence (P37945 whole entry): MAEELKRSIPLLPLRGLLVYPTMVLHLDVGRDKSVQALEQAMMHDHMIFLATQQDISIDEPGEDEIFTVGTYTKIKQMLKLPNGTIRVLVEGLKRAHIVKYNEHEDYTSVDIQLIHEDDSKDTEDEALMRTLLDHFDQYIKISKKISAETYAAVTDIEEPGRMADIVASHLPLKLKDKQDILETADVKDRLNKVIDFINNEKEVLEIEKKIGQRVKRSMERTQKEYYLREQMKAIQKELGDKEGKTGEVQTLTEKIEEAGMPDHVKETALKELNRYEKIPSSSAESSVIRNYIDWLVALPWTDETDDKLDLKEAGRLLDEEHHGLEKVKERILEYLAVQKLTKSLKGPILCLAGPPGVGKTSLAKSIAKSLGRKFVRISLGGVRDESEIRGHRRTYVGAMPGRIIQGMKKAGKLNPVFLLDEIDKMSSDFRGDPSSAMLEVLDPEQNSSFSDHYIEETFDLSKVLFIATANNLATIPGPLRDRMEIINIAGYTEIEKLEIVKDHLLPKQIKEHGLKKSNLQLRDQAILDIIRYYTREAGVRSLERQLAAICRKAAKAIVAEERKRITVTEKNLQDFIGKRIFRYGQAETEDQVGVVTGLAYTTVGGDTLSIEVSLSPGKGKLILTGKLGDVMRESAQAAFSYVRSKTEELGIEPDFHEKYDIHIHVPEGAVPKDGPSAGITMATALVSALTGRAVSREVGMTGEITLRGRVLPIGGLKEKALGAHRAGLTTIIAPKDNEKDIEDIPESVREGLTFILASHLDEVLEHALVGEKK

Molecule	Km of in vitro proteolysis of GST-mNG-SwrA (loss of fluorescence) with 0.25 μM LonA and 0.5 μM SmiA [1] [µM]	Kd [2] [nM]	Kd [3] [nM]	koff [3] [s⁻¹]	kon [3] [M⁻¹ s⁻¹]
GST-mNG-SwrA (from UniProt O32266 1-117) (natural protein)	1.14				
B1		43.2	43.2	0.00418	96800
B2		60.9		0.0093	153000
